Data: US20220017632A1 (HANX BIOPHARMACEUTICS, published 2022)

Columns and labels:
[1] = target: T1, human fusion protein hOX40-HIS (human, UniProt P43489 29-216, limits assumed); assay: ELISA, coated hOX40-HIS; antibody 16 ng/ml; well 2
T1 construct: it looks like the extracellular region; also called hOX40-HIS antigen; human OX40 antigen
T1 sequence: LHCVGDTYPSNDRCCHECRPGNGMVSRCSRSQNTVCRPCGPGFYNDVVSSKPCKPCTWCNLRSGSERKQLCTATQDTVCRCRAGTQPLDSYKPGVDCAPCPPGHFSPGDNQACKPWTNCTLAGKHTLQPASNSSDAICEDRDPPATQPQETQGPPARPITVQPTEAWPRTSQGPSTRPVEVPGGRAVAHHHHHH
Procedure: (§1) For the hybridoma antibodies prepared in Example 1, the specific binding of different antibodies to hOX40 was detected by the following steps:
(§2) 3) addition of the primary antibody: preparing the four antibodies to a concentration of 2 μg/ml, and diluting 1:5 from the 2 μg/ml as the starting concentration to 7 gradient concentrations (that is, the concentrations of 2μg/ml, 400 ng/ml, 80 ng/ml, 16 ng/ml, 3.2 ng/ml, 0.64 ng/ml, 0.128 ng/ml, respectively). The prepared primary antibodies were added individually, and incubated at 30° C. for 1 hour; PBS was used as the blank control group;

[2] = target: T1, human fusion protein hOX40-HIS; assay: ELISA, coated hOX40-HIS; antibody 80 ng/ml; well 1
Procedure: as §1, §2

[3] = target: T1, human fusion protein hOX40-HIS; assay: ELISA, coated hOX40-HIS; antibody 3.2 ng/ml; well 1
Procedure: as §1, §2

[4] = target: T1, human fusion protein hOX40-HIS; assay: ELISA, coated hOX40-HIS; antibody 2000 ng/ml; well 2
Procedure: as §1, §2

monkey OX40 antigen = target: T2, monkey OX40 antigen (monkey); assay: ELISA, coated monkey OX40-HIS 0.25 ug/ml
T2 construct: also called Monkey OX40-HIS antigen
Procedure: (§3) Human OX40 antigen, monkey OX40 antigen and murine OX40 antigen were used for coating respectively to detect whether OX40 antibody cross-reacts with OX40 protein of different species, through the following steps:
(§4) 3) addition of the primary antibody: preparing antibody 9C12 to a concentration of 2 μg/ml, and diluting 1:5 from the 2 μg/ml as the starting concentration to […] 7 gradient concentrations (that is, the concentrations of 2 μg/ml, 400 ng/ml, 80 ng/ml, 16 ng/ml, 3.2 ng/ml, 0.64 ng/ml, 0.128 ng/ml, respectively). PBS was used as the blank control group. The prepared primary antibodies were added individually, and incubated at 30° C. for 1 hour;

[5] = target: T1, human fusion protein hOX40-HIS; assay: ELISA, coated hOX40-HIS; antibody 0.64 ng/ml; well 2
Procedure: as §1, §2

[6] = target: T1, human fusion protein hOX40-HIS; assay: ELISA, coated hOX40-HIS; antibody 400 ng/ml; well 2
Procedure: as §1, §2

murine OX40 antigen = target: T3, murine OX40 antigen (murine, UniProt P47741 20-211, limits assumed); assay: ELISA, coated murine OX40 antigen 0.25 ug/ml
T3 sequence (looked up): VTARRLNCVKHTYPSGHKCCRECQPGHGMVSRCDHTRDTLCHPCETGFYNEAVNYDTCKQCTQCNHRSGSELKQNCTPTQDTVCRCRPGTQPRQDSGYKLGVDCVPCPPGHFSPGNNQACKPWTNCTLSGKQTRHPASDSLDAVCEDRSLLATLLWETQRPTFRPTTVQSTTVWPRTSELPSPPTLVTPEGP
Procedure: as §3, §4

[7] = target: T1, human fusion protein hOX40-HIS; assay: ELISA, coated hOX40-HIS; antibody 16 ng/ml; well 1
Procedure: as §1, §2

[8] = target: T1, human fusion protein hOX40-HIS; assay: ELISA, coated hOX40-HIS; antibody 80 ng/ml; well 2
Procedure: as §1, §2

[9] = target: T1, human fusion protein hOX40-HIS; assay: ELISA, coated hOX40-HIS; antibody 2000 ng/ml; well 1
Procedure: as §1, §2

[10] = target: T1, human fusion protein hOX40-HIS; assay: ELISA, coated hOX40-HIS; antibody 3.2 ng/ml; well 2
Procedure: as §1, §2

[11] = target: T1, human fusion protein hOX40-HIS; assay: ELISA, coated hOX40-HIS; antibody 0.64 ng/ml; well 1
Procedure: as §1, §2

[12] = target: T1, human fusion protein hOX40-HIS; assay: ELISA, coated human OX40-HIS 0.25 ug/ml
Procedure: as §3, §4

[13] = target: T1, human fusion protein hOX40-HIS; assay: ELISA, coated hOX40-HIS; antibody 0.128 ng/ml; well 1
Procedure: as §1, §2

[14] = target: T1, human fusion protein hOX40-HIS; assay: ELISA, coated hOX40-HIS 0.6 ug/ml
Procedure: as §2
The ELISA test results are shown in Table 1, in which, the EC₅₀ value represents the half-maximal effect concentration, that is, the concentration that can cause 50% of the maximum effect.

[15] = target: T1, human fusion protein hOX40-HIS; assay: SPR, ProteOn XPR, hOX40-HIS immobilized on GLM chip, antibody as analyte
Procedure: The ProteOn XPR molecular interaction instrument may be used to detect the kinetics and affinity constants of the interaction between different drugs and a variety of different target proteins. 250 nM hOX40-HIS antigen ([…] hOX40 antigen) was immobilized on the surface of the GLM chip, and after equilibrating in PBST, was allowed to bind to the antibody 9C12 diluted twice in PBST to the concentration of 50, 25, 12.5, 6.25, 3.125, 0 nM, respectively, and then dissociated in PBST.

[16] = target: T1, human fusion protein hOX40-HIS; assay: ELISA, coated hOX40-HIS; antibody 400 ng/ml; well 1
Procedure: as §1, §2

[17] = target: T4, hOX40 protein on the cell membrane surface (293T-OX40 stably transfected cells) (human, UniProt P43489 29-277); assay: flow cytometry on 293T-OX40 cells
T4 construct: whole, on cells; also called hOX40 on the surface of the cell membrane; 293T cells expressing hOX40
T4 sequence (looked up): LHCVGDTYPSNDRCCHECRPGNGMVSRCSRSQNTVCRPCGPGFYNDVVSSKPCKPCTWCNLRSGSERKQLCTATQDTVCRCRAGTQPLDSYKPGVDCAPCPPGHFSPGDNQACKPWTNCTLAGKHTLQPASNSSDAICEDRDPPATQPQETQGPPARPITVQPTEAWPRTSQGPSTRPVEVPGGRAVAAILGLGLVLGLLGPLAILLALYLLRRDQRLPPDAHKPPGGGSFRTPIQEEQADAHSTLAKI
Procedure: In this experiment, 293T-OX40 stably transfected cell lines were used as the experimental cells, and the FACS method was used to detect the binding of 9C12 to the hOX40 protein on the cell membrane surface. The specific procedure is as follows:
293T cells expressing hOX40 were digested, and prepared to a final concentration of 10⁶ cells/ml. 100 μl of cell suspension from each group was added into a 1.5 ml EP tube. Various concentrations of 9C12 antibody (10000 ng/ml, 4000 ng/ml, 2000 ng/ml, 1000 ng/ml, 500 ng/ml, 200 ng/ml, 20 ng/ml, 2 ng/ml) were added, and incubated on ice for 1 hour. After 1 hour, the tube was washed with HBSS once. Each group was added with prepared APC goat anti-human IgG secondary antibody, incubated on ice for 20 minutes in the dark, washed once with HBSS, and finally suspended with 200 μl of HBSS, and the cells were tested.

[18] = target: T1, human fusion protein hOX40-HIS; assay: ELISA, coated hOX40-HIS; antibody 0.128 ng/ml; well 2
Procedure: as §1, §2

B1: antibody 9C12 (antibody, V domains shown)
VH: QVQLQQSGGGLVKPGGSLKLSCAASGFTFSDYYMYWVRQTPEKRLEWVATISDGGSNTYYPDSVKGRFTISRDNAKNNLYLQMSSLKSEDTATYYCARRGTGTGFGYWGQGTLVTVSA
VL: DIVLTQTTASLSVSVGETVTITCRASENIYSTLAWYQQKQGKSPQLLVYAATNLVAGVPSRFSGSGSGTQYSLKINSLQSEDFGSYYCQHFWGIPWTFGGGTKLEIK
notes: Purified mouse hybridoma antibody; also called 9C12 antibody; 9C12 Ab
- absorbance at 450 nm [1]: 2.25
- absorbance at 450 nm [2]: 2.59
- absorbance at 450 nm [3]: 1.58
- absorbance at 450 nm [4]: 2.68
- EC50 (monkey OX40 antigen): 0.01 nM
- absorbance at 450 nm [5]: 0.464
- absorbance at 450 nm [6]: 2.52
- binding result (murine OX40 antigen): no binding (tested: 2000 ng/ml)
- absorbance at 450 nm [7]: 2.4
- absorbance at 450 nm [8]: 2.51
- absorbance at 450 nm [9]: 2.72
- absorbance at 450 nm [10]: 1.51
- absorbance at 450 nm [11]: 0.464
- EC50 [12]: 0.012 nM
- absorbance at 450 nm [13]: 0.147
- EC50 [14]: 0.017 nM
- Kd [15]: 0.151 nM
- koff [15]: 6.73e-05 s⁻¹
- kon [15]: 445000 M⁻¹ s⁻¹
- absorbance at 450 nm [16]: 2.59
- EC50 [17]: 2.84 nM
- absorbance at 450 nm [18]: 0.138

B2: antibody 8A7 (antibody, V domains shown)
VH: QVQLQESGPSHVKPSQTLSLTCSVTGDSITSGYWNWIRKFPGNKLEYLGYISFSGNTYYNPSLKSRISIIRDTSKNQYYLQLNSVTTEDTATYYCARYPYSYSNWDYAMDYWGQGTSVTVSS
VL: DIVMTQSPSSLVVSVGEKVTMSCKSSQFLLYSSSQKNYLAWYQQKPGQSPQLLIYWASTRESGVPDRFTGSGSGTDFTLTISSVKAEDLAVYYCHQYYSYPLTFGAGTKLELK
notes: Purified mouse hybridoma antibody; also called 8A7 antibody; 8A7 Ab
- absorbance at 450 nm [1]: 0.288
- absorbance at 450 nm [2]: 0.894
- absorbance at 450 nm [3]: 0.096
- absorbance at 450 nm [4]: 1.98
- absorbance at 450 nm [5]: 0.058
- absorbance at 450 nm [6]: 1.66
- absorbance at 450 nm [7]: 0.272
- absorbance at 450 nm [8]: 0.87
- absorbance at 450 nm [9]: 1.93
- absorbance at 450 nm [10]: 0.094
- absorbance at 450 nm [11]: 0.059
- absorbance at 450 nm [13]: 0.05
- EC50 [14]: 0.727 nM
- Kd [15]: 20.8 nM
- koff [15]: 0.000567 s⁻¹
- kon [15]: 27300 M⁻¹ s⁻¹
- absorbance at 450 nm [16]: 1.64
- absorbance at 450 nm [18]: 0.056

B3: antibody 1D9 (antibody, V domains shown)
VH: EVQLQQSGPELVKPGALVKISCKASGYTFTNYDINWVKQRPGQGLEWIGWIYPEDGSTKYNEKFKGKATLTADKSSSTAYMQLSSLTSENSAVYFCARDTRGYFDYWGQGTTLTVSS
VL: DIVMTQTTAIMSASLGEKVTMSCRASSSVNYIYWYQQKSDASPKLWIYYTSNLAPGVPARFSGSGSGNSYSLTISSMEGEDAATYYCQQFTSSPWTFGGGTKLEFKR
notes: Purified mouse hybridoma antibody; also called 1D9 antibody; 1D9 Ab
- absorbance at 450 nm [1]: 0.123
- absorbance at 450 nm [2]: 0.316
- absorbance at 450 nm [3]: 0.061
- absorbance at 450 nm [4]: 3.08
- absorbance at 450 nm [5]: 0.053
- absorbance at 450 nm [6]: 1.12
- absorbance at 450 nm [7]: 0.104
- absorbance at 450 nm [8]: 0.287
- absorbance at 450 nm [9]: 2.95
- absorbance at 450 nm [10]: 0.066
- absorbance at 450 nm [11]: 0.051
- absorbance at 450 nm [13]: 0.053
- EC50 [14]: 10.8 nM
- absorbance at 450 nm [16]: 1.11
- absorbance at 450 nm [18]: 0.052
